T1: RBD of hCoV-229E, P15423
T1 chain: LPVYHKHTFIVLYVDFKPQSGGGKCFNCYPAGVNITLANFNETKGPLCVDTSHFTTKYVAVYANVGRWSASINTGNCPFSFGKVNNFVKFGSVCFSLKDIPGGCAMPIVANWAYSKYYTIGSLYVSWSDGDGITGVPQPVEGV


Tests used:
[1] = target: RBD of SARS-CoV-2 (B lineage), P0DTC2
RBD of hCoV-229E, P15423 = target: T1, RBD of hCoV-229E, P15423

Protein	disulfide bond cleavage activity (remaining rate of native RBD; maleimide-PEG 2k, SDS-PAGE) [1]	disulfide bond cleavage activity (remaining rate of native RBD; maleimide-PEG 2k, SDS-PAGE) (RBD of hCoV-229E, P15423)
gene recombinant of human ERp72 (protein disulfide isomerase family A member 4) (protein) MGSSHHHHHHSSGLVPRGSHEGPDEDSSNRENAIEDEEEEEEEDDDEEEDDLEVKEENGVLVLNDANFDNFVADKDTVLLEFYAPWCGHCKQFAPEYEKIANILKDKDPPIPVAKIDATSASVLASRFDVSGYPTIKILKKGQAVDYEGSRTQEEIVAKVREVSQPDWTPPPEVTLVLTKENFDEVVNDADIILVEFYAPWCGHCKKLAPEYEKAAKELSKRSPPIPLAKVDATAETDLAKRFDVSGYPTLKIFRKGRPYDYNGPREKYGIVDYMIEQSGPPSKEILTLKQVQEFLKDGDDVIIIGVFKGESDPAYQQYQDAANNLREDYKFHHTFSTEIAKFLKVSQGQLVVMQPEKFQSKYEPRSHMMDVQGSTQDSAIKDFVLKYALPLVGHRKVSNDAKRYTRRPLVVVYYSVDFSFDYRAATQFWRSKVLEVAKDFPEYTFAIADEEDYAGEVKDLGLSESGEDVNAAILDESGKKFAMEPEEFDSDTLREFVTAFKKGKLKPVIKSQPVPKNNKGPVKVVVGKTFDSIVMDPKKDVLIEFYAPWCGHCKQLEPVYNSLAKKYKGQKGLVIAKMDATANDVPSDRYKVEGFPTIYFAPSGDKKNPVKFEGGDRDLEHLSKFIEEHATKLSRTKEEL	The order of the disulfide bond cleavage activity of the RBD from highest to lowest was PDI, ERp46, P5, ERp72, and ERp57.	The order of the disulfide bond cleavage activity of the RBD of hCoV-229E from highest to lowest was PDI, ERp46, P5, Erp57, and ERp72.
gene recombinant of human P5 (protein disulfide isomerase family A member 6) (protein) MGSSHHHHHHSSGLVPRGSHMLYSSSDDVIELTPSNFNREVIQSDSLWLVEFYAPWCGHCQRLTPEWKKAATALKDVVKVGAVDADKHHSLGGQYGVQGFPTIKIFGSNKNRPEDYQGGRTGEAIVDAALSALRQLVKDRLGGRSGGYSSGKQGRSDSSSKKDVIELTDDSFDKNVLDSEDVWMVEFYAPWCGHCKNLEPEWAAAASEVKEQTKGKVKLAAVDATVNQVLASRYGIRGFPTIKIFQKGESPVDYDGGRTRSDIVSRALDLFSDNAPPPELLEIINEDIAKRTCEEHQLCVVAVLPHILDTGAAGRNSYLEVLLKLADKYKKKMWGWLWTEAGAQSELETALGIGGFGYPAMAAINARKMKFALLKGSFSEQGINEFLRELSFGRGSTAPVGGGAFPTIVEREPWDGRDGELPVEDDIDLSDVELDDLGKDEL	The order of the disulfide bond cleavage activity of the RBD from highest to lowest was PDI, ERp46, P5, ERp72, and ERp57.	The order of the disulfide bond cleavage activity of the RBD of hCoV-229E from highest to lowest was PDI, ERp46, P5, Erp57, and ERp72.
gene recombinant of human ERp57 (protein disulfide-isomerase like protein ERp57) (protein) MGSSHHHHHHSSGLVPRGSHMLESDVLELTDDNFESRISDTGSAGLMLVEFFAPWCGHCKRLAPEYEAAATRLKGIVPLAKVDCTANTNTCNKYGVSGYPTLKIFRDGEEAGAYDGPRTADGIVSHLKKQAGPASVPLRTEEEFKKFISDKDASIVGFFDDSFSEAHSEFLKAASNLRDNYRFAHTNVESLVNEYDDNGEGIILFRPSHLTNKFEDKTVAYTEQKMTSGKIKKFIQENIFGICPHMTEDNKDLIQGKDLLIAYYDVDYEKNAKGSNYWRNRVMMVAKKFLDAGHKLNFAVASRKTFSHELSDFGLESTAGEIPVVAIRTAKGEKFVMQEEFSRDGKALERFLQDYFDGNLKRYLKSEPIPESNDGPVKVVVAENFDEIVNNENKDVLIEFYAPWCGHCKNLEPKYKELGEKLSKDPNIVIAKMDATANDVPSPYEVRGFPTIYFSPANKKLNPKKYEGGRELSDFISYLQREATNPPVIQEEKPKKKKKAQEDL	The order of the disulfide bond cleavage activity of the RBD from highest to lowest was PDI, ERp46, P5, ERp72, and ERp57.	The order of the disulfide bond cleavage activity of the RBD of hCoV-229E from highest to lowest was PDI, ERp46, P5, Erp57, and ERp72.

— patent US20260248897
